Results: paper PMC7078148, “Interactions of 17β-Hydroxysteroid Dehydrogenase Type 10 and Cyclophilin D in Alzheimer's Disease” (Neurochemical Research, 2020)

Molecular target: T1, human full length recombinant 17β-hydroxysteroid dehydrogenase type 10 protein (His tag) (human, UniProt Q99714 1-261)
T1 construct: 17β-hydroxysteroid dehydrogenase type 10, human, full length recombinant protein; The tetramer was not measured here; The His tag and 'full length' are stated only in the co-immunoprecipitation methods; The SPR reagent is described as human recombinant protein from the same supplier, with no catalogue number; also called 17β-HSD10; ERAB; source: bought: Fitzgerald (Fitzgerald Industries …)
T1 sequence (looked up): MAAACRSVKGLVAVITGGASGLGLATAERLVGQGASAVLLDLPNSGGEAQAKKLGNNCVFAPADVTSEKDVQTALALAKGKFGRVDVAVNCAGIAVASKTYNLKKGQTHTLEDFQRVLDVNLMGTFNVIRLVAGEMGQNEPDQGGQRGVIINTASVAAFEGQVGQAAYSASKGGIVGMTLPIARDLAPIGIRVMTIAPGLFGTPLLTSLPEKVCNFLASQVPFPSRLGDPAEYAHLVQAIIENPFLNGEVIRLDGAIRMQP
Experiment: SPR; cypD captured (response 1.5 nm) on amine-coupled anti-cypD antibody; 17β-HSD10 at 6, 10, 30, 60 and 100 nM injected 10 min, dissociation 15 min; HEPES 10 mM pH 7.4 with 250 µg/ml BSA, 15 mM KCl, 0.1 mM MgCl2; 25 °C, 20 µl/min; reference channel without cypD subtracted; global fit, 1:1 Langmuir model with mass transport
Conditions: both partners purified

Kd: 350 pM
koff: 5.8e-05 s⁻¹
B1: human full length cyclophilin D protein (His tag) (enzyme)
chain: not shown
notes: cyclophilin D (mitochondrial peptidyl-prolyl cis-trans isomerase F), human, full length recombinant protein; The His tag and 'full length' are stated only in the co-immunoprecipitation methods; also called cypD; PPIF; source: bought: Fitzgerald (Fitzgerald Industries International), recombinant
